Measured values taken from doi:10.1101/2020.12.31.425019 (bioRxiv, 2020).

Tests used:
cross-linking = molecular target: the molecule itself; assay: cross-linking
negative-stain EM = molecular target: the molecule itself; assay: negative-stain EM

B1: fPanx1ΔC (frog Pannexin 1 truncated at Lys357, residues 1-357) (domain or fragment, UniProt B3DLA5 1-357, looked up)
chain: MAIAHIATEYVFSDFLLKDPPESKYKGLRLELAVDKLVSCIAVGLPLLLISLAFAQEITLGSQISCFAPTSFSWRQAAYVDSFCWAAVQQKHLSQSDSGNVPLWLHKFFPYILLLVAVLLYLPNLFWRFTAAPHLSSDLKFVMEELDKCYNRDIKDIKAANNLNSSDKRDGLNSPVVSENLQQSLWEIPLSHYKYPIVEQYLKTKNNSYGLIIKYLICRVVTLIIVFTACIYLGYYISLFSLTDEFTCNIRTGILRNDTALPPLVQCKLIAVGVFRLLSYINLIIYVLIMPFIIYAMLVPFRKTANVLKVYEVLPTFSVQQAPSKTYDDHSLFLLFLEENVSELKSYKFLKVLENIK
modifications: glycosylated in insect cells (upper band sensitive to PNGaseF; site not stated)
stoichiometry N (cross-linking): ~7 | stoichiometry N (negative-stain EM): 7
